1 molecule from US20070203061, “Adiponectin expression-inducing agents and uses thereof” (TOUDAI TLO, LTD, published 2007) can be followed below.

The target in the data set is FLAG-KLF9 (UniProt O35739 SEQ:1-244). Briefly: EMSA; purified FLAG-KLF9 with 32-bp fragment, similar to adipocyte nuclear extract. Conditions: tags: FLAG; label: 32P. The method, then:
[…] were prepared from 293T cells, 3T3L1 adipocytes, or white adipose tissue according to a reported method (Almoguera, C. et al., J. Biol. Chem. 277, 43866-43872 (2002)). Double-stranded oligonucleotides used for the electrophoretic mobility shift assay were prepared by annealing both strands. Labeled probes (3,000 to 10,000 cpm) and the nuclear extracts were mixed in a reaction solution (20 μL: 10 mM Tris-HCl (pH7.6), 50 mM KCl, 0.05 mM EDTA, 2.5 mM MgCl₂, 8.5% glycerol, 1 mM dithiothreitol, 0.5 μg/mL of poly(dI-dC), 0.1% Triton X, and 1 mg/mL of skim milk), and incubated for 30 minutes on ice. The DNA-protein complexes were fractionated on a 4.6% polyacrylamide gel at 140 V for 1 hour at 4° C. The Gel was dried and exposed using a BAS2000 filter with BAStation software (Fuji Photo Film).

FLAG-KLF9, sequence (O35739 other isoform, or with tags, fused parts or gaps): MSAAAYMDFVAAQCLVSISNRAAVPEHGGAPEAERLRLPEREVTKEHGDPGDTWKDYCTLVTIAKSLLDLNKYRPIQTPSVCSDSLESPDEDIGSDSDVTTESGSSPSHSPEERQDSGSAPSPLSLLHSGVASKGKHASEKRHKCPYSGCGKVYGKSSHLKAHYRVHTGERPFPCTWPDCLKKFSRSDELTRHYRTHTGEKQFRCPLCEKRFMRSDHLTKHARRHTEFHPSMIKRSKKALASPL

B1: adiponectin promoter -188/-157 32-bp element (dsDNA)
DNA 1: GAAGCCCAAGCTGGGTTGTACCAGGTTCCCTA
DNA 2: TAGGGAACCTGGTACAACCCAGCTTGGGCTTC
In the case of B1, the binding result is on record as “binds”.
